27 molecules from publication PMC10786891, “Massively parallel profiling of RNA-targeting CRISPR-Cas13d” can be followed below.

T1: EsCas13d, nuclease-dead (Eubacterium siraeum, UniProt B0MS50, R295A;H300A;R849A;H854A)
T1 sequence: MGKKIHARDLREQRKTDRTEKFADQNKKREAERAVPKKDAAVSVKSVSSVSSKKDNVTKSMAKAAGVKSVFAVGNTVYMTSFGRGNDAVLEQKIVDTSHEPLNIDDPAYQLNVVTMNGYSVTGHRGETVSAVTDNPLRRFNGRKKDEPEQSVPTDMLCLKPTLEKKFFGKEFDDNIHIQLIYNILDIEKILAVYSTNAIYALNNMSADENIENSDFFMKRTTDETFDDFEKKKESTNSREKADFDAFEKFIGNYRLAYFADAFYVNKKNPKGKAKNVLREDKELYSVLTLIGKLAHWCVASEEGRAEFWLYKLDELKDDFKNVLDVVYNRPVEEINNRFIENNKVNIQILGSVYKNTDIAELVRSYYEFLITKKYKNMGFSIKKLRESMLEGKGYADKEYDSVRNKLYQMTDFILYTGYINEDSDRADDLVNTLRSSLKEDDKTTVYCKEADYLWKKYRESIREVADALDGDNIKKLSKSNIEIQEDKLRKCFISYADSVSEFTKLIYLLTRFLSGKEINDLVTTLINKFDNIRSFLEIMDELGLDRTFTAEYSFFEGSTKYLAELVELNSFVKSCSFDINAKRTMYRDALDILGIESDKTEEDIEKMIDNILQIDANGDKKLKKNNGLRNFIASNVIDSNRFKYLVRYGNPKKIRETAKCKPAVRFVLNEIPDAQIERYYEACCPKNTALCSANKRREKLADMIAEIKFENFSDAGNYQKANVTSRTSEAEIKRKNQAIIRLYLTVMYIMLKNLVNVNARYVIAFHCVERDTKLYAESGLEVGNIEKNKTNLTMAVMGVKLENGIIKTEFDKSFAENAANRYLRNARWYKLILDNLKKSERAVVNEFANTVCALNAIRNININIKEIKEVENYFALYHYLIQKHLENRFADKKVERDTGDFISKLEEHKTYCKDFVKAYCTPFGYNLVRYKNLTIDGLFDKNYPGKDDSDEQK

B1: target 1 MT 5'PFS GUU 3'PFS ACA (mixed)
RNA 1: CACCCGUGCAAAAAUGCAGGGGUCUAAAACUGAGCGGAUAACCUCUCUAUGG
RNA 2: GGGAAUGGAUCCACAUCUACGAAUUCGUUCCAUAGAGAGGUUAUCCGCUCAACAAGAUCGGAAGAGCACACGU
B2: target 1 MT 5'PFS GAA 3'PFS UCG (mixed)
RNA 1: CACCCGUGCAAAAAUGCAGGGGUCUAAAACUGAGCGGAUAACCUCUCUAUGG
RNA 2: GGGAAUGGAUCCACAUCUACGAAUUCGAACCAUAGAGAGGUUAUCCGCUCAUCGAGAUCGGAAGAGCACACGU
B3: target 1 MT 5'PFS GUU 3'PFS ACG (mixed)
RNA 1: CACCCGUGCAAAAAUGCAGGGGUCUAAAACUGAGCGGAUAACCUCUCUAUGG
RNA 2: GGGAAUGGAUCCACAUCUACGAAUUCGUUCCAUAGAGAGGUUAUCCGCUCAACGAGAUCGGAAGAGCACACGU
B4: target 1 MT 5'PFS AAA 3'PFS UUA (mixed)
RNA 1: CACCCGUGCAAAAAUGCAGGGGUCUAAAACUGAGCGGAUAACCUCUCUAUGG
RNA 2: GGGAAUGGAUCCACAUCUACGAAUUCAAACCAUAGAGAGGUUAUCCGCUCAUUAAGAUCGGAAGAGCACACGU
B5: target 1 MT 5'PFS GUG 3'PFS AUG (mixed)
RNA 1: CACCCGUGCAAAAAUGCAGGGGUCUAAAACUGAGCGGAUAACCUCUCUAUGG
RNA 2: GGGAAUGGAUCCACAUCUACGAAUUCGUGCCAUAGAGAGGUUAUCCGCUCAAUGAGAUCGGAAGAGCACACGU
B6: target 1 MT 5'PFS UCA 3'PFS CCU (mixed)
RNA 1: CACCCGUGCAAAAAUGCAGGGGUCUAAAACUGAGCGGAUAACCUCUCUAUGG
RNA 2: GGGAAUGGAUCCACAUCUACGAAUUCUCACCAUAGAGAGGUUAUCCGCUCACCUAGAUCGGAAGAGCACACGU
B7: target 1 MT 5'PFS GUG 3'PFS AUA (mixed)
RNA 1: CACCCGUGCAAAAAUGCAGGGGUCUAAAACUGAGCGGAUAACCUCUCUAUGG
RNA 2: GGGAAUGGAUCCACAUCUACGAAUUCGUGCCAUAGAGAGGUUAUCCGCUCAAUAAGAUCGGAAGAGCACACGU
B8: target 1 MT 5'PFS GUG 3'PFS AUU (mixed)
RNA 1: CACCCGUGCAAAAAUGCAGGGGUCUAAAACUGAGCGGAUAACCUCUCUAUGG
RNA 2: GGGAAUGGAUCCACAUCUACGAAUUCGUGCCAUAGAGAGGUUAUCCGCUCAAUUAGAUCGGAAGAGCACACGU
B9: target 1 MT 5'PFS UAG 3'PFS CCC (mixed)
RNA 1: CACCCGUGCAAAAAUGCAGGGGUCUAAAACUGAGCGGAUAACCUCUCUAUGG
RNA 2: GGGAAUGGAUCCACAUCUACGAAUUCUAGCCAUAGAGAGGUUAUCCGCUCACCCAGAUCGGAAGAGCACACGU
B10: target 1 MT 5'PFS GCG 3'PFS UCC (mixed)
RNA 1: CACCCGUGCAAAAAUGCAGGGGUCUAAAACUGAGCGGAUAACCUCUCUAUGG
RNA 2: GGGAAUGGAUCCACAUCUACGAAUUCGCGCCAUAGAGAGGUUAUCCGCUCAUCCAGAUCGGAAGAGCACACGU
B11: target 1 MT 5'PFS ACC 3'PFS CAG (mixed)
RNA 1: CACCCGUGCAAAAAUGCAGGGGUCUAAAACUGAGCGGAUAACCUCUCUAUGG
RNA 2: GGGAAUGGAUCCACAUCUACGAAUUCACCCCAUAGAGAGGUUAUCCGCUCACAGAGAUCGGAAGAGCACACGU
B12: target 1 insC 3' of 19,insG 3' of 9 (mixed)
RNA 1: CACCCGUGCAAAAAUGCAGGGGUCUAAAACUGAGCGGAUAACCUCUCUAUGG
RNA 2: GGGAAUGGAUCCACAUCUACGAAUUCGUACCAUCAGAGAGGUUAGUCCGCUCACCGAGAUCGGAAGAGCACACGU
B13: target 1 MT 5'PFS UAU 3'PFS UAA (mixed)
RNA 1: CACCCGUGCAAAAAUGCAGGGGUCUAAAACUGAGCGGAUAACCUCUCUAUGG
RNA 2: GGGAAUGGAUCCACAUCUACGAAUUCUAUCCAUAGAGAGGUUAUCCGCUCAUAAAGAUCGGAAGAGCACACGU
B14: target 1 MT 5'PFS AAA 3'PFS UUG (mixed)
RNA 1: CACCCGUGCAAAAAUGCAGGGGUCUAAAACUGAGCGGAUAACCUCUCUAUGG
RNA 2: GGGAAUGGAUCCACAUCUACGAAUUCAAACCAUAGAGAGGUUAUCCGCUCAUUGAGAUCGGAAGAGCACACGU
B15: target 1 MT 5'PFS GCA 3'PFS UCC (mixed)
RNA 1: CACCCGUGCAAAAAUGCAGGGGUCUAAAACUGAGCGGAUAACCUCUCUAUGG
RNA 2: GGGAAUGGAUCCACAUCUACGAAUUCGCACCAUAGAGAGGUUAUCCGCUCAUCCAGAUCGGAAGAGCACACGU
B16: target 1 MT 5'PFS UGU 3'PFS CUU (mixed)
RNA 1: CACCCGUGCAAAAAUGCAGGGGUCUAAAACUGAGCGGAUAACCUCUCUAUGG
RNA 2: GGGAAUGGAUCCACAUCUACGAAUUCUGUCCAUAGAGAGGUUAUCCGCUCACUUAGAUCGGAAGAGCACACGU
B17: target 1 insA 3' of 22,insU 3' of 4 (mixed)
RNA 1: CACCCGUGCAAAAAUGCAGGGGUCUAAAACUGAGCGGAUAACCUCUCUAUGG
RNA 2: GGGAAUGGAUCCACAUCUACGAAUUCGUACACAUAGAGAGGUUAUCCGCUUCACCGAGAUCGGAAGAGCACACGU
B18: target 1 MT 5'PFS AAC 3'PFS ACU (mixed)
RNA 1: CACCCGUGCAAAAAUGCAGGGGUCUAAAACUGAGCGGAUAACCUCUCUAUGG
RNA 2: GGGAAUGGAUCCACAUCUACGAAUUCAACCCAUAGAGAGGUUAUCCGCUCAACUAGAUCGGAAGAGCACACGU
B19: target 1 MT 5'PFS GUG 3'PFS AUC (mixed)
RNA 1: CACCCGUGCAAAAAUGCAGGGGUCUAAAACUGAGCGGAUAACCUCUCUAUGG
RNA 2: GGGAAUGGAUCCACAUCUACGAAUUCGUGCCAUAGAGAGGUUAUCCGCUCAAUCAGAUCGGAAGAGCACACGU
B20: target 1 MT 5'PFS UGU 3'PFS CUA (mixed)
RNA 1: CACCCGUGCAAAAAUGCAGGGGUCUAAAACUGAGCGGAUAACCUCUCUAUGG
RNA 2: GGGAAUGGAUCCACAUCUACGAAUUCUGUCCAUAGAGAGGUUAUCCGCUCACUAAGAUCGGAAGAGCACACGU
B21: target 1 MT 5'PFS GCG 3'PFS UCA (mixed)
RNA 1: CACCCGUGCAAAAAUGCAGGGGUCUAAAACUGAGCGGAUAACCUCUCUAUGG
RNA 2: GGGAAUGGAUCCACAUCUACGAAUUCGCGCCAUAGAGAGGUUAUCCGCUCAUCAAGAUCGGAAGAGCACACGU
B22: target 1 MT 5'PFS AAC 3'PFS ACA (mixed)
RNA 1: CACCCGUGCAAAAAUGCAGGGGUCUAAAACUGAGCGGAUAACCUCUCUAUGG
RNA 2: GGGAAUGGAUCCACAUCUACGAAUUCAACCCAUAGAGAGGUUAUCCGCUCAACAAGAUCGGAAGAGCACACGU
B23: target 1 MT 5'PFS UAG 3'PFS CCG (mixed)
RNA 1: CACCCGUGCAAAAAUGCAGGGGUCUAAAACUGAGCGGAUAACCUCUCUAUGG
RNA 2: GGGAAUGGAUCCACAUCUACGAAUUCUAGCCAUAGAGAGGUUAUCCGCUCACCGAGAUCGGAAGAGCACACGU
B24: target 1 MT 5'PFS CUC 3'PFS ACG (mixed)
RNA 1: CACCCGUGCAAAAAUGCAGGGGUCUAAAACUGAGCGGAUAACCUCUCUAUGG
RNA 2: GGGAAUGGAUCCACAUCUACGAAUUCCUCCCAUAGAGAGGUUAUCCGCUCAACGAGAUCGGAAGAGCACACGU
B25: target 1 MT 5'PFS GCG 3'PFS UCG (mixed)
RNA 1: CACCCGUGCAAAAAUGCAGGGGUCUAAAACUGAGCGGAUAACCUCUCUAUGG
RNA 2: GGGAAUGGAUCCACAUCUACGAAUUCGCGCCAUAGAGAGGUUAUCCGCUCAUCGAGAUCGGAAGAGCACACGU
B26: target 1 MT 5'PFS CUA 3'PFS CAG (mixed)
RNA 1: CACCCGUGCAAAAAUGCAGGGGUCUAAAACUGAGCGGAUAACCUCUCUAUGG
RNA 2: GGGAAUGGAUCCACAUCUACGAAUUCCUACCAUAGAGAGGUUAUCCGCUCACAGAGAUCGGAAGAGCACACGU
B27: target 1 A1U,G12U (mixed)
RNA 1: CACCCGUGCAAAAAUGCAGGGGUCUAAAACUGAGCGGAUAACCUCUCUAUGG
RNA 2: GGGAAUGGAUCCACAUCUACGAAUUCGUACCAUAGAGAGUUUAUCCGCUCUCCGAGAUCGGAAGAGCACACGU

The data set deals with T1, EsCas13d, nuclease-dead. Nature of the data set: crRNA (strand 1, pre-loaded); Mg2+; 40 mM Tris-HCl pH 7.5, 150 mM NaCl, 6 mM MgCl2, 1 mM DTT, 0.1% Tween-20, 0.2 mg/ml BSA; 25 C; 10 min per concentration, then washed. To be noted: tags: His6-TwinStrep-SUMO cleaved; N-terminal SNAP kept (SNAP-Surface 488); label: 3' end held by stalled T7 RNA polymerase.
Take B1: the affinity, expressed as Kd, was 0.0265 ± 0.0095 µM.
For the molecule B2, binding was put at a Kd of 0.0395 ± 0.018 µM.
The result for B3 reads 0.033 ± 0.0065 µM; that for B4, 0.0101 ± 0.00145 µM.
For the molecule B5, binding was put at a Kd of 0.0162 ± 0.001 µM.
B6: binding was characterised by a dissociation constant (Kd) of 0.0275 ± 0.0095 µM.
For the molecule B7, the Kd – broadly, the constant that tells how readily two partners part at equilibrium – was determined as 0.0182 ± 0.00125 µM.
The result for B8 reads 0.0158 ± 0.0014 µM; that for B9, approximately 0.056 µM; that for B10, 0.019 ± 0.004 µM.
In the case of B11, the Kd is approximately 0.036 µM.
In the case of B12, the Kd is 0.044 ± 0.005 µM.
The result for B13 reads 0.034 ± 0.011 µM; that for B14, 0.0117 ± 0.00155 µM; that for B15, 0.0137 ± 0.00595 µM.
Consider B16, for which binding was put at a Kd of 0.0289 ± 0.00765 µM.
Regarding B17, binding was put at a Kd of 0.0113 ± 0.0007 µM.
Consider B18, for which the affinity, expressed as Kd, was 0.021 ± 0.007 µM.
Molecule B19 registered a Kd of 0.0199 ± 0.0024 µM.
B20 showed a Kd of 0.049 ± 0.019 µM.
In turn, B21 registered a dissociation constant Kd of 0.0177 ± 0.00445 µM.
For the molecule B22, the dissociation constant Kd was 0.08 ± 0.0345 µM.
B23 returned a Kd of 0.022 ± 0.00515 µM.
In the case of B24, the Kd was 0.072 ± 0.033 µM.
As for B25, the affinity, expressed as Kd, was 0.0129 ± 0.0026 µM.
As for B26, the figure is approximately 0.0095 µM.
On to B27, for which the Kd was 0.0141 ± 0.0018 µM.
